In US20160053248A1, “SYSTEMS AND METHODS FOR EVOLVING ENZYMES WITH DESIRED ACTIVITIES” (Potomac Affinity Proteins, LLC, priority 2009, published 2016):
Primed or numbered codes have the meaning given here. No end group written: not given here. *: point of attachment. Dabcyl′ = CN(C)c1ccc(/N=N/c2ccc(C(=O)*)cc2)cc1

Legend:
[1] = molecular target: SBT189-Dabcyl conjugate (Bacillus amyloliquefaciens (Bacillus velezensis)) (UniProt P00782); experiment: single turn-over kinetics, quenching of GFP fluorescence by Dabcyl; 0.1M KPO4, pH 7.2, 5 mM azide, 22° C
SBT189 [2] = experiment: Transient state kinetics with FRET peptide: product release and product binding; parameters: species or system Bacillus amyloliquefaciens; conditions: not influenced by azide concentration
Procedure: The deacylation reaction and product release: A self-quenched FRET peptide that becomes highly fluorescent when cleaved (Dabcyl-EEDKLFRAL-SATE(EDANS)G (SEQ ID NO:16)) was synthesized. This peptide has been used to determine transient state kinetic parameters. Deacylation of SBT189 in 50 mM azide is faster (3.3 s^−1) than the wild type counterpart (1.8 s^−1). The rate of product (Dabcyl-EEDKLFRAL; (SEQ ID NO:17)) release is 6 s^−1 and Kp is 1.2 μM. Product binding is not influenced by azide concentration. Strong product binding of subtilisin-phage to GA-PCOGNATE- is used for the collection of active mutants in the release step in phage selection (see FIG. 5). Binding is constitutive at this step, however, and is not used to increase selectivity.

SBT189 [3] = conditions: read-out: apparent KD for azide; anion binding to the enzyme-substrate complex
Text: The acylation reaction: Step 2 describes conversion of the ternary complex into an acyl-enzyme with the concomitant release to the C-terminal portion of the substrate. With substrates used in phage display, the GB domain is released concomitantly with the acylation step. If a fluorescent reporter group is attached to subtilisin, a decrease in energy transfer enables time-dependent quantitation of acylation.

GA-PFRAL-S-GB [4] = test system: GA-PFRAL-S-GB
[5] = molecular target: GB-GFP fusion protein with cognate variation LFQSL-SA, P06654
[6] = molecular target: GB-GFP fusion protein with cognate variation LFRAL-MA, P06654
[7] = molecular target: GB-GFP fusion protein with cognate variation LFRAM-SA, P06654
[8] = molecular target: GB-GFP fusion protein with cognate variation LFRAY-SA, P06654
[9] = molecular target: GB-GFP fusion protein with cognate variation LLRAL-SA, P06654
[10] = molecular target: GB-GFP fusion protein with cognate variation LYRAL-SA, P06654
[11] = molecular target: GB-GFP fusion protein with cognate variation VFKAM-SG, P06654
GA-PFRAL-S-GB [12] = molecular target: GA-PFRAL-S-GB; remark: listed apart in the source
prodomain variant pS156 = molecular target: T1, prodomain variant pS156
T1 chain: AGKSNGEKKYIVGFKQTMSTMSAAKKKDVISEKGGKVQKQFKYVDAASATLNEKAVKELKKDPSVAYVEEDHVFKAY

prodomain variant pS170 = molecular target: T2, prodomain variant pS170
T2 chain: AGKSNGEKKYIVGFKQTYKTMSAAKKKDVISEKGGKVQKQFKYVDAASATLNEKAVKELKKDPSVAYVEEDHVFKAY

[13] = molecular target: T3, subtilisin variant SBT189 (Bacillus amyloliquefaciens (Bacillus …, UniProt P00782 108-382)); experiment: transient state kinetics with the FRET peptide
T3 construct: Engineered subtilisin BPN' variant with D32A; also called S189; RSUB1
T3 chain: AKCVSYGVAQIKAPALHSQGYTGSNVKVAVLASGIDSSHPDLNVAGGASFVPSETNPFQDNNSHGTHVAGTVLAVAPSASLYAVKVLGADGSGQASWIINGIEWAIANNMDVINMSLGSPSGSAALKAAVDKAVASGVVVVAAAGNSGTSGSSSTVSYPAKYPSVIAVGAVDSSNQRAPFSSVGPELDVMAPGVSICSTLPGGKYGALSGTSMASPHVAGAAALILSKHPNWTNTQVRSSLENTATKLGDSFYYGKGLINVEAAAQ

SBT189 [14] = experiment: Activation cascade: release of free SBT189 from prodomain inhibitor complexes; assay type: biochemical, Bacillus amyloliquefaciens
Procedure: (§1) To do this complexes of SBT189 were formed with two different prodomain inhibitors. The first complex contained 100 μM of SBT189 and prodomain variant pS156, and the second complex contained 100 μM SBT189 and prodomain variant pS170. To start the activation cascade, 10 nM wild type subtilisin was added to each complex. Wild type subtilisin is able to cleave both the loop sequence MSTM (SEQ ID NO:23) in pS156 and the loop sequence YKTM (SEQ ID NO:22) in pS170. After 5 minutes of digestion, the wild type subtilisin was inactivated by the addition of EDTA to 1 mM and heating to 55° C. for 10 minutes. Azide was then added to the reactions to 10 mM and the activity of free SBT189 subtilisin was then measured as a function of time. The release of free SBT189 from the pS156 complex occurs at a rate of about 1 days^−1. This is because the cleavage of the loop sequence MSTM (SEQ ID NO:23) by SBT189 is very slow. In contrast, the complete activation of SBT189 from the pS170 complex occurs within 10 minutes. Because SBT189 can readily cleave the loop sequence YKTL (SEQ ID NO:24), SBT189 is rapidly released after the self-activating chain reaction is initiated by wild type subtilisin. Thus the protease signal from the pS170 complex increases about 10^4-fold in 10 minutes (from 10 nM to 100 μM).

[15] = molecular target: T3, subtilisin variant SBT189; experiment: complex formed at 100 µM for the activation cascade
Procedure: as §1, with “days⁻¹.” for “days^−1.”, “10⁴-fold” for “10^4-fold”

[16] = 100 μM complex, started with 10 nM wild type subtilisin, 10 mM azide

## GB-GFP fusion protein with cognate variation LFRAY-SA (from UniProt P06654 228-282)
[1]
  KS: 1900 µM

## GB-GFP fusion protein with cognate variation LFRAM-SA (from UniProt P06654 228-282)
[1]
  KS: 36 µM

## GB-GFP fusion protein with cognate variation VFKAM-SG (from UniProt P06654 228-282)
[1]
  KS: 43 µM

## GB-GFP fusion protein with cognate variation LLRAL-SA (from UniProt P06654 228-282)
[1]
  KS: 670 µM

## Dabcyl-EEDKLFRAL ({Dabcyl′}-EEDKLFRAL)
SBT189 [2]
  rate of product release: 6 s⁻¹

## GB-GFP fusion protein with cognate variation LYRAL-SA (from UniProt P06654 228-282)
[1]
  KS: 88 µM

## [N-]=[N+]=[N-] [azide]
SBT189 [3]
  Kd: 50 mM

## GB-GFP fusion protein with cognate variation LFQSL-SA (from UniProt P06654 228-282)
[1]
  KS: 66 µM

## subtilisin synthesized as a fusion protein on the surface of M13 phage
GA-PFRAL-S-GB [4]
  enrichment of phagemid relative to helper phage after one round of catch and release selection: 350 fold enrichment

## GB-LFRAL-SA-GFP (from UniProt P06654 228-282)
[1]
  KS: 16 µM

## GB-GFP fusion protein with cognate variation LFRAL-MA (from UniProt P06654 228-282)
[1]
  KS: 24 µM

B1: SBT189-Dabcyl conjugate (protein)
chain: AKCVSYGVAQIKAPALHSQGYTGSNVKVAVLASGIDSSHPDLNVAGGASFVPSETNPFQDNNSHGTHVAGTVLAVAPSASLYAVKVLGADGSGQASWIINGIEWAIANNMDVINMSLGSPSGSAALKAAVDKAVASGVVVVAAAGNSGTSGSSSTVSYPAKYPSVIAVGAVDSSNQRAPFSSVGPELDVMAPGVSICSTLPGGKYGALSGTSMASPHVAGAAALILSKHPNWTNTQVRSSLENTATKLGDSFYYGKGLINVEAAAQ
[5]
  Relative k2/KS: 0.04
  acylation rate (k2): 0.23 s⁻¹
[6]
  Relative k2/KS: 0.027
  acylation rate (k2): 0.06 s⁻¹
[7]
  Relative k2/KS: 0.32
  acylation rate (k2): 1 s⁻¹
[8]
  Relative k2/KS: 0.001
  acylation rate (k2): 0.17 s⁻¹
[9]
  Relative k2/KS: 0.01
  acylation rate (k2): 0.59 s⁻¹
[10]
  Relative k2/KS: 0.03
  acylation rate (k2): 0.23 s⁻¹
[11]
  Relative k2/KS: 0.004
  acylation rate (k2): 0.017 s⁻¹
GB-LFRAL-SA-GFP, P06654
  Relative k2/KS: 1
  activity against the cognate sequence, relative to VFKAM-SG: 250-times greater
  acylation rate (k2): 1.4 s⁻¹

B2: subtilisin variant SBT189 (protein)
chain: AKCVSYGVAQIKAPALHSQGYTGSNVKVAVLASGIDSSHPDLNVAGGASFVPSETNPFQDNNSHGTHVAGTVLAVAPSASLYAVKVLGADGSGQASWIINGIEWAIANNMDVINMSLGSPSGSAALKAAVDKAVASGVVVVAAAGNSGTSGSSSTVSYPAKYPSVIAVGAVDSSNQRAPFSSVGPELDVMAPGVSICSTLPGGKYGALSGTSMASPHVAGAAALILSKHPNWTNTQVRSSLENTATKLGDSFYYGKGLINVEAAAQ
GA-PFRAL-S-GB [12]
  cleavage rate in the absence of azide: 0.12 min⁻¹
GB-LFRAL-SA-GFP, P06654
  digestion of the fusion protein, protein gel and MALDI-MS: The fusion protein was correctly and specifically processed to release GB-LFRAL and SA-GFP
Prodomain variant pS156
  release of free SBT189 from the complex: about 1 days^-1
Prodomain variant pS170
  complete activation of SBT189 from the complex: occurs within 10 minutes
  increase of the protease signal from the complex: increases about 10^4-fold in 10 minutes (from 10 nM to 100 µM)

B3: RSUB1(AF350) (protein)
chain: AKCVSYGVAQIKAPALHSQGYTGSNVKVAVLASGIDSSHPDLNVAGGASFVPSETNPFQDNNSHGTHVAGTVLAVAPSASLYAVKVLGADGSGQASWIINGIEWAIANNMDVINMSLGSPSGSAALKAAVDKAVASGVVVVAAAGNSGTSGSSSTVSYPAKYPSVIAVGAVDSSNQRAPFSSVGPELDVMAPGVSICSTLPGGKYGALSGTSMASPHVAGAAALILSKHPNWTNTQVRSSLENTATKLGDSFYYGKGLINVEAAAQ
GA-PFRAL-S-GB [12]
  rate of GB release in saturating azide: 6.4 s⁻¹
  rate of GB release with no azide present: 0.0019 s⁻¹

B4: wild type subtilisin (protein)
chain: AQSVPYGVSQIKAPALHSQGYTGSNVKVAVIDSGIDSSHPDLKVAGGASMVPSETNPFQDNNSHGTHVAGTVAALNNSIGVLGVAPSASLYAVKVLGADGSGQYSWIINGIEWAIANNMDVINMSLGGPSGSAALKAAVDKAVASGVVVVAAAGNEGTSGSSSTVGYPGKYPSVIAVGAVDSSNQRASFSSVGPELDVMAPGVSIQSTLPGNKYGAYNGTSMASPHVAGAAALILSKHPNWTNTQVRSSLENTTTKLGDSFYYGKGLINVQAAAQ
Prodomain variant pS156
  cleavage of the prodomain loop: able to cleave
Prodomain variant pS170
  cleavage of the prodomain loop: able to cleave

B5: Dabcyl-EEDKLFRAL (peptide)
peptide: {Dabcyl′}-EEDKLFRAL
notes: Acyl-side cleavage product of the FRET peptide; also called product
[13]
  koff: 6 s⁻¹

B6: prodomain variant pS170 (other)
chain: AGKSNGEKKYIVGFKQTYKTMSAAKKKDVISEKGGKVQKQFKYVDAASATLNEKAVKELKKDPSVAYVEEDHVFKAY
notes: M18Y, S19K, A74F, H75K against the prodomain; also called p5170
SBT189 [14]; [16]
  time to complete activation of SBT189 from the complex: ≤ 10 min
SBT189 [14]; in 10 minutes (from 10 nM to 100 μM)
  increase of protease signal: about 10^4 fold
[15]
  binding result: binds

B7: pS156 (protein)
chain: AGKSNGEKKYIVGFKQTMSTMSAAKKKDVISEKGGKVQKQFKYVDAASATLNEKAVKELKKDPSVAYVEEDHVFKAY
SBT189 [14]; [16]
  rate of release of free SBT189 from the complex: about 1 days^−1
